Experimental data as given in patent publication US20170369590A1 (published 2017).

Columns and labels:
[1] = target: T1, human epidermal growth factor receptor 2 (HER2), membrane-bound on cells (human, UniProt P04626 23-1255); experiment: FACS binding; AU565 cells
[2] = target: T1, human epidermal growth factor receptor …; experiment: FACS binding; A431 cells

Binder	EC50 [1] [µg/mL]	EC50 [2] [µg/mL]
HuMab 127 (antibody, V domains shown) VH: EVQLVQSGAEVKKPGESLTISCKGSGYSFSIYWIGWVRQMPGKGLEWMGIIFPGDSDIRYSPSFQGQVTISADKSISTAYLQWSSLKASDTAMYYCARQPGDWSPRHWYFDLWGRGTLVTVSS VL: VIWMTQSPSLLSASTGDRVTISCRMSQGISSYLAWYQQKPGKAPELLIYAASTLQSGVPSRFSGSGSGTDFTLTISYLQSEDFATYYCQQYYSFPLTFGGGTKVEIK	2.29	0.27
HuMab 169 (antibody, V domains shown) VH: QVQLVQSGAEVKKPGASVKVSCKASGYTFTNYGISWVRQAPGQGLEWMGWLSAYSGNTIYAQKLQGRVTMTTDTSTTTAYMELRSLRSDDTAVYYCARDRIVVRPDYFDYWGQGTLVTVSS VL: EIVLTQSPATLSLSPGERATLSCRASQSVSSYLAWYQQKPGQAPRLLIYDASNRATGIPARFSGSGSGTDFTLTISSLEPEDFAVYYCQQRSNWPRTFGQGTKVEIK	0.908	0.415
HuMab 098 (antibody, V domains shown) VH: EVQLLESGGGLVQPGGSLRLSCAASGFTFSNYGMSWVRQAPGKGLEWVSAISGSAYSTYYADSVKGRFTISRDNSKNTLWLQMNSLRAEDTAVYYCAKAHYHGSGSYYTLFDYWGQGTLVTVSS VL: DIQMTQSPSSLSASVGDRVTITCRASQGISSWLAWYQQKPEKAPKSLIYAASSLQSGVPSRFSGSGSGTDFTLTISSLQPEDFATYYCQQYNSYPYTFGQGTKLEIK	0.336	0.101
HuMab 159 (antibody, V domains shown) VH: EVQLVQSGAEVKKPGESLKISCKGSGYNFTSYWIGWVRQMPGKGLEWMGIIYPGDSDTRYSPSFQGQVTISADKSISTAYLQWSSLKASDTAMYYCARWGTYYDILTGYFNWFDPWGQGTLVTVSS VL: DIQMTQSPSSLSASVGDRVTITCRASQGISSWLAWYQQKPEKAPKSLIYAASSLQSGVPSRFSGSGSGTDFTLTISSLQPEDFATYYCQQYYIYPWTFGQGTKVEIK	1.3	0.855
HuMab 153 (antibody, V domains shown) VH: QVQLVESGGGVVQPGRSLRLSCAASGFTFSDYVIHWVRQAPGKGLEWVTVISYDGSNKYYADSVKGRFTISRDNSKNTLYLQMNSLSAEDTAMYYCARGGITGTTGVFDYWGQGTLVTVSS VL: DIQMTQSPSSLSASVGDRVTITCRASQGISSWLAWYQQKPEKAPKSLIYDASSLQSGVPSRFSGSGYGTDFSLTISSLQPEDFAIYYCQQYKSYPITFGQGTRLEIK	0.626	0.244
HuMab 132 (antibody, V domains shown) VH: QVQLVQSGAEVKKPGASVKVSCKASGYTFTSYGISWVRQAPGQGLEWMGWISAYNGNSNYVQKFQGRVTMTTDTTTSTAYMELRSLTSDDTAVYYCAREYSYDSGTYFYYGMDVWGQGTTVTVSS VL: EIVLTQSPATLSLSPGERATLSCRASQSVSSYLAWYQQKPGQAPRLLIYDASNRATGIPARFSGSGSGTDFTLTISSLEPEDFAVYYCQQRSNWPMYTFGQGTKLEIK	0.911	0.068
HuMab 025 (antibody, V domains shown) VH: QVQLQQWGAGLLKPSETLSLTCAVYGGSFSDYYWNWIRQPPGKGLEWIGEIHHSGSTNYNPSLKSRVTISVDTSKNQFSLKLSSVTAADTAVYYCARGYYDSGVYYFDYWAQGTLVTVSS VL: DIQMTQSPSSLSASVGDRVTITCRASQGISRWLAWYQQKPEKAPKSLIYAASSLRSGVPSRFSGSGSGTDFTLTISSLQPEDFATYYCQQYNSYPITFGQGTRLEIK	0.58	0.128
HuMab 050 (antibody, V domains shown) VH: EVQLLESGGGLVQPGGSLRLSCAASGFTFSSYAMNWVRQAPGKGLEWVSAISGRGGTTYYADSVKGRFTISRDNSKNTLYLQMSSLRAEDTAVYYCAKARANWDYFDYWGQGTLVTVSS VL: DIQMTQSPSSVSASVGDRVTITCRASQGISSWLAWYQHKPGKAPKLLIYAASILQSGVPSRFSGSGSGTDFTLTISSLQPEDFATYYCQQANSFPITFGQGTRLEIK	0.722	1.14
HuMab 084 (antibody, V domains shown) VH: QVQLVQSGAEVKKPGSSVKVSCKASGGTFRTYAINWVRQAPGQGLEWMGRINTVLGIVNHAQKFQGRVTITADKSTNTAYMELNSLRSEDTAVYYCAREKGVDYYYGIEVWGQGTTVTVSS VL: DIQMTQSPSSVSASVGDRVTITCRASQGISSWLAWYQHKPGKAPKLLIYVASTLQSGVPSRFSGSGSGTDFTLTISSLQPEDFATYYCQQANSFPLTFGGGTKVEIK	0.491	0.498
HuMab 129 (antibody, V domains shown) VH: QVQLVESGGGVVQPGRSLRLSCAASGFTFSTFAIHWVRQAPGKGLEWVAVISYDGGHKFYADSVKGRFTISRDNSKNTLYLQMNSLRAEDTAMYYCARGLGVWGAFDYWGQGTLVTVSS VL: EIVLTQSPATLSLSPGERATLSCRASQSVSSYLAWYQQKPGQAPRLLIYDASNRATGIPARFSGSGSGTDFTLTISSLEPEDFAVYYCQQRSNWWTFGQGTKVEIK	0.578	0.316
